Data as given in US8080531B2, “Methods for modulating checkpoint activation through TopBP1” (California Institute of Technology, priority 2006, dated 2011).

B1: wild-type 978-1286 fragment of human TopBP1: EGFP containing the SV40 nuclear localization sequence and residues 978-1286 of human TopBP1, expressed from transfected plasmid (protein)
chain: KKKRKVAQECKHLPESLYPHTYNPKMSLDISAVQDGRLCNSRLLSAVSSTKDDEPDPLILEENDVDNMATNNKESAPSNGSGKNDSKGVLTQTLEMRENFQKQLQEIMSATSIVKPQGQRTSLSRSGCNSASSTPDSTRSARSGRSRVLEALRQSRQTVPDVNTEPSQNEQIIWDDPTAREERARLASNLQWPSCPTQYSELQVDIQNLEDSPFQKPLHDSEIAKQAVCDPGNIRVTEAPKHPISEELETPIKDSHLIPTPQAPSIAFPLANPPVAPHPREKIITIEETHEELKKQYIFQLSSLNPQERIDYCHL
modifications: left off: large carriers
B2: GST-XtopBP1 (1197-1513): GST fusion of XtopBP1 residues 1197-1513, containing two adjoining BRCT repeats (protein)
chain: EFEPKSAMRTPVIENNLQSPTKPDHLTPTPQAPSIAFPLANPPVAPQPREKPVQPFSKEETLKERRFQLSSLDPQERIDYSQLIEELGGVVIEKQCFDPSCTHIVVGHPLRNEKYLASMAAGKWVLHRSYLEACRAAKRFIQEEDYEWGSISILSAVTNINPQQRMLAEAAMRWRKKLQGIKQNMGIAEGAFSGWKVILNVDQTKEPGFKRLLQSGGAKVFAGHSSPLFKEASHLFADFSKLKPDEPRVNVAEAAAQGVNCLKPEYIADYLMKELPPPMNNYCLPDAIPYVRVTGTGLSRKRKTSGDVSDVKRSRHY
modifications: left off: a dimerising Fc or GST
notes: GST fusion of XtopBP1 residues 1197-1513, containing two adjoining BRCT repeats
B3: XtopBP1Δ993-1196: full-length version of XtopBP1 in which most of the ATR-activating domain had been deleted (protein)
chain: MASSENEPFCVKFIKSPENSEYFFKAYEAIKQIQSDESLQLTEEREALLLKEKDKSLYICDPFSGAAFSHLKKLGCRIVGPQVVIFCMENQRRVPRAEYPVYNMAMADVTISCTSLDKETREDVHHYVQIMGGCVYRDLNVSVTHLIAGEVGSKKYLVAASLEKPILLPSWVKELWEKSNQRIIRYSDVNMTEYLCPIFRGCTICVTGLSSLDRKEVQRLTALHGGEYTGQLKMNESTHLIVQEAKGQKYECARKWNVHCISVQWFFDSIEKGFCQDETMYKIEPASTIKSVPDTSTPTGGNSKPNSRALYDVSQISNISTSCVNESAFNSAMASRLDPPADTLENLDISSLQAPDDLLDGCRIYLCGFGGRKLDKLRKLINNGGGVRFNQLTGDVTHIIVGETDEELKQFLNKTQHRPYVLTVKWLLDSFAKGHLQPEEIYFHSSYQQTEMPSPFEPAINLTANKMSSTRGPLNHTRNHQADEDLLSQYTENNSTLIEDEHPKTSNTNSISQMSMHEDMTTCTSQSGLADTSTIIEGGLFSRKQFMVLGFLEEDEACIIDIIKKSAGKVLSSQKRAIADYAVVPLLGCEVESTVGEVVTNAWLGMCIEQEKLLDPHSNALFTPVPFLEGSTPLRECVLSVSQFMGAERDSLVYLAGLLGAKVQEFFVRKANPKKGMFASTHLVLKDAEGSKYEAAKKWNLPAVTMNWLLQCARTGRKADEDSYLVDNVPEEDKDESFISQTYKPQAIRLSMHAPCHLENHPEALTKAAVTPLDMNRFKSKAFQSVISQHNKNPQTSGGESKVLQREPSLHLDTPSKFLSKDKLFKPSFDVKDALAALETPGGPNQKNRTQSTPLSEVIGRNLQLAIANSTRQTAAVTASPQLKAAEKKEFDNSKLLINVVICVSKKLIKKQGELNGIAASLGAEYRWCFDESVTHFIYHGRQNDMSREYKSVKERSGIYIVSEHWLFACSEQQKRVPEALYPHTYNPKMSLEFEPKSAMRTPVIENNLQSPTKPDHLTPTPQAPSIAFPLANPPVAPQPREKPVQPFSKEETLKERRFQLSSLDPQERIDYSQLIEELGGVVIEKQCFDPSCTHIVVGHPLRNEKYLASMAAGKWVLHRSYLEACRAAKRFIQEEDYEWGSISILSAVTNINPQQRMLAEAAMRWRKKLQGIKQNMGIAEGAFSGWKVILNVDQTKEPGFKRLLQSGGAKVFAGHSSPLFKEASHLFADFSKLKPDEPRVNVAEAAAQGVNCLKPEYIADYLMKELPPPMNNYCLPDAIPYVRVTGTGLSRKRKTSGDVSDVKRSRHY
modifications: left off: small tags and cut ends
B4: 1008-1286 fragment: His6-Human TopBP1 fragment, residues 1008-1286 (protein)
chain: RLCNSRLLSAVSSTKDDEPDPLILEENDVDNMATNNKESAPSNGSGKNDSKGVLTQTLEMRENFQKQLQEIMSATSIVKPQGQRTSLSRSGCNSASSTPDSTRSARSGRSRVLEALRQSRQTVPDVNTEPSQNEQIIWDDPTAREERARLASNLQWPSCPTQYSELQVDIQNLEDSPFQKPLHDSEIAKQAVCDPGNIRVTEAPKHPISEELETPIKDSHLIPTPQAPSIAFPLANPPVAPHPREKIITIEETHEELKKQYIFQLSSLNPQERIDYCHL
modifications: left off: small tags and cut ends
B5: residues 1050-1192: His6-Human TopBP1 fragment containing residues 1050-1192 (protein, UniProt Q92547 1050-1192, looked up, fragment)
chain: NGSGKNDSKGVLTQTLEMRENFQKQLQEIMSATSIVKPQGQRTSLSRSGCNSASSTPDSTRSARSGRSRVLEALRQSRQTVPDVNTEPSQNEQIIWDDPTAREERARLASNLQWPSCPTQYSELQVDIQNLEDSPFQKPLHDS
modifications: His6 tag
B6: 1050-1286 fragment: His6-Human TopBP1 fragment, residues 1050-1286 (protein)
chain: NGSGKNDSKGVLTQTLEMRENFQKQLQEIMSATSIVKPQGQRTSLSRSGCNSASSTPDSTRSARSGRSRVLEALRQSRQTVPDVNTEPSQNEQIIWDDPTAREERARLASNLQWPSCPTQYSELQVDIQNLEDSPFQKPLHDSEIAKQAVCDPGNIRVTEAPKHPISEELETPIKDSHLIPTPQAPSIAFPLANPPVAPHPREKIITIEETHEELKKQYIFQLSSLNPQERIDYCHL
modifications: left off: small tags and cut ends

Legend:
Xatr-Xatrip [1] = test: Kinase assay of Xatr-Xatrip complexes isolated from Xenopus egg extracts; assay type: biochemical; settings: for activation of Xatr kinase activity toward PHAS-I: isolated Xatr-Xatrip complexes, 32P-ATP, result in words; for ATR activation compared with the 972-1279 fragment: Xatr-XatripΔ222, PHAS-I, His6-human TopBP1 fragments
Chain of Xatr-Xatrip (Q9DE14 whole entry, the tested form may be a part): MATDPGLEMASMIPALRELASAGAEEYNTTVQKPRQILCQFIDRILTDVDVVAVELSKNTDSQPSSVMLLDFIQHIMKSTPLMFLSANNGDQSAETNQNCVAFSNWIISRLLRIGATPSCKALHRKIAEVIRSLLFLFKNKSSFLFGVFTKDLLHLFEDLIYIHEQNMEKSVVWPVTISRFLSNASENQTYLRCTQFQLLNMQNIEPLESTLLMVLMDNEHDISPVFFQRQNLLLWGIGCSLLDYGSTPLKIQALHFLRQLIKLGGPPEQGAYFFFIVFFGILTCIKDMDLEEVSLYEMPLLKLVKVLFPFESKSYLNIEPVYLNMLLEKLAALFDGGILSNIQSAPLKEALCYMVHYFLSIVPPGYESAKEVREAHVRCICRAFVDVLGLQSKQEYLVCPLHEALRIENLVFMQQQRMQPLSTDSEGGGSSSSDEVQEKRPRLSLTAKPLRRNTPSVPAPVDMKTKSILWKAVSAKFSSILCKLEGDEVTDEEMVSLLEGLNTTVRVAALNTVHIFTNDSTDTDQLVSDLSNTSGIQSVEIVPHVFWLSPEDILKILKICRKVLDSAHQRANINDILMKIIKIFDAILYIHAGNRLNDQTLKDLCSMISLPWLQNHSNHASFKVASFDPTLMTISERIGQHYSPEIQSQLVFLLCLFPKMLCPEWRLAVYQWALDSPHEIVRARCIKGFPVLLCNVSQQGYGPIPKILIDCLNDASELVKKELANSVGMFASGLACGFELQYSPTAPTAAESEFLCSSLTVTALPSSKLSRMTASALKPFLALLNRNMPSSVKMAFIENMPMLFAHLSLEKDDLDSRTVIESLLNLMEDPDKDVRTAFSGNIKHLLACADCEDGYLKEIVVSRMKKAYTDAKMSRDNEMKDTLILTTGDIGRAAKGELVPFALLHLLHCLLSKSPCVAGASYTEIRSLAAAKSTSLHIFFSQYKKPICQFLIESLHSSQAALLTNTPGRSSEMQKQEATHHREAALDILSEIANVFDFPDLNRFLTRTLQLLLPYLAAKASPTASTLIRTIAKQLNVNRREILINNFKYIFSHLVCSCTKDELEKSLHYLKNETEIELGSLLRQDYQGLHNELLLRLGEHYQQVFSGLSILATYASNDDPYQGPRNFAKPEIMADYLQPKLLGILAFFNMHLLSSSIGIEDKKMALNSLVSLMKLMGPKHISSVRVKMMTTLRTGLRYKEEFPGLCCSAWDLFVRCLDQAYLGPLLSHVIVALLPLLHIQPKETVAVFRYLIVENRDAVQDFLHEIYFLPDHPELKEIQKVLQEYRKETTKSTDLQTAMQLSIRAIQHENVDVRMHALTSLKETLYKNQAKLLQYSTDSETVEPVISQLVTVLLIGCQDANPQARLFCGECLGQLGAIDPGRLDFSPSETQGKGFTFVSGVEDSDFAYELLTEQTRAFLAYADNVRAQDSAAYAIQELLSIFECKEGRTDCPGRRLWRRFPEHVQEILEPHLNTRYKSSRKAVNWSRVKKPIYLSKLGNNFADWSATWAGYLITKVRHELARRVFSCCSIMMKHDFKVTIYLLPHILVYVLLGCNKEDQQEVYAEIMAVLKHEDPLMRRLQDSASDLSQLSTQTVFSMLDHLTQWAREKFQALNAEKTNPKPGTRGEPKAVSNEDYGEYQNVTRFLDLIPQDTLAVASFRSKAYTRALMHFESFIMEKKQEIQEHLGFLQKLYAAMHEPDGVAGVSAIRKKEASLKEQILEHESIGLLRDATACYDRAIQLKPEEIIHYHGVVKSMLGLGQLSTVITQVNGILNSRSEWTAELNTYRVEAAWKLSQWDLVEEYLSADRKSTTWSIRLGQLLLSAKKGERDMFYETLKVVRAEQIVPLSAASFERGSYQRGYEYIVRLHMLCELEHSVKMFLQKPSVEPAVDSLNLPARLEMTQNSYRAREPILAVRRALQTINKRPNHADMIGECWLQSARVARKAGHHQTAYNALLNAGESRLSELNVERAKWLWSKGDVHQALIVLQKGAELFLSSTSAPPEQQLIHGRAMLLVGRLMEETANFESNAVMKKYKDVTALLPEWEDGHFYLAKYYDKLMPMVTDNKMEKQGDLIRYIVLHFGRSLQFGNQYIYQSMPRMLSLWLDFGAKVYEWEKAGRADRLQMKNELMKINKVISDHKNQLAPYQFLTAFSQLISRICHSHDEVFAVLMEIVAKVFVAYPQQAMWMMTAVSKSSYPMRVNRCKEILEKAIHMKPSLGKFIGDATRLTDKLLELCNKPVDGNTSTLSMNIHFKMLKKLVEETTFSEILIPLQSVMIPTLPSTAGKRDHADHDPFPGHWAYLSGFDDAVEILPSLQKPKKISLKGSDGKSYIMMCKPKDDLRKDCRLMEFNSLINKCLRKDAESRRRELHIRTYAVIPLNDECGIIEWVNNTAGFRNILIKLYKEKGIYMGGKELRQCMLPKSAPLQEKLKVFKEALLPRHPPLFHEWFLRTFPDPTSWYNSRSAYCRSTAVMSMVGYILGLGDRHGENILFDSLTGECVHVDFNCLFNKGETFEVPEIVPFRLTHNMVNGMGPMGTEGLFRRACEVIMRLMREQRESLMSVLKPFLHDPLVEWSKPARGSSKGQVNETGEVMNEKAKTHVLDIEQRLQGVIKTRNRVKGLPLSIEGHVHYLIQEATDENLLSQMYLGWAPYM
From the text: Specifically, Applicants first isolated Xatr from egg extracts by pull-downs with FLAG-tagged Xenopus ATRIP (Xatrip). For these experiments, Applicants used both full-length Xatrip and an N-terminal truncation mutant (ΔN222) that supports normal Xatr-dependent activation of Xchk1 in egg extracts (Kumagai et al., 2004; Kim et al., 2005).
Applicants eluted the beads with FLAG peptide and mixed the eluates with a His6-tagged version of XtopBP1 that had been purified from baculovirus-infected insect cells (FIG. 1B). Finally, Applicants added ^32P-ATP and PHAS-I, a commonly used model substrate for ATR (Abraham, 2001).
Xatrip-FLAG and XatripΔN222-FLAG (20 ng/μl each) were incubated in interphase extracts containing anti-FLAG M2 antibody beads (Sigma) for 60 min at room temperature. The beads were isolated and washed twice with buffer A (10 mM HEPES-KOH (pH 7.5), 150 mM NaCl, 0.1% CHAPS, and 2.5 mM EGTA) and twice with HEPES-buffered saline (HBS; 10 mM HEPES-KOH (pH 7.5) and 150 mM NaCl). Xatr-Xatrip complexes were eluted in one-tenth the volume of the egg extract in HBS containing 0.1 mg/ml 3×-FLAG peptide (Sigma) for 60 min at 4° C. Eluates (2 μl) were used for kinase assays as described below.
Samples were incubated in 20 μl kinase buffer (50 mM Tris-HCl (pH 7.5), 10 mM MgCl2, 1 mM dithiothreitol, 100 μM nonradioactive ATP, and 100 μCi/ml [γ-^32P]ATP) containing 12.5 μg/ml PHAS-I or 50 μg/ml GST-Xmcm2 (62-122) for 30 min at room temperature. GST-XtopBP1 (972-1279) was added at a final concentration of 100 μg/ml unless indicated otherwise. In some cases, GST-Xmcm2 (62-122), GST-Xchk1 (306-352), or full-length Xchk1-Myc-His6 were used as substrates with only […] nonradioactive ATP. Reactions were terminated by boiling in gel sample buffer.

human Mcm2 on S108 = test: Phosphorylation of Mcm2 on S108 in transfected human 293T cells; assay type: cell-based
From the text: To pursue this issue further, Applicants asked whether the ATR-activating domain of TopBP1 could induce ATR-dependent phosphorylation in human cells. For this purpose, Applicants constructed a version of the enhanced green fluorescent protein (EGFP) containing the SV40 nuclear localization sequence and residues 978-1286 of human TopBP1 (equivalent to residues 972-1279 of XtopBP1). Applicants also produced the W1145R mutant of this plasmid (analogous to the W1138R mutant of XtopBP1). Applicants transfected plasmids encoding these proteins into human 293T cells and performed immunoblotting with anti-phosphopeptide antibodies that detect phosphorylation of human Mcm2 on S108 (which corresponds to S92 of Xmcm2) (Cortez et al., 2004; Yoo et al., 2004).
pEGFP-NLS-TopBP1 (978-1286), which encodes EGFP followed by a nuclear localization sequence (KKKRKV, SEQ ID NO: 11) and amino acids 978-1286 of human TopBP1, was prepared from pEGFP (Clontech) by standard polymerase chain reaction-based methods. Plasmids were transfected into 293T cells with Lipofectamine 2000 (Invitrogen).

Xatr-Xatrip [2] = test: Glutathione bead pull-down of Xatr and Xatrip from egg extracts; assay type: binding, Xenopus; settings: egg extracts, immunoblotting
Method: Specifically, Applicants incubated glutathione beads containing GST-XtopBP1 (972-1279) in egg extracts, reisolated the beads, and performed immunoblotting for both Xatr and Xatrip. […] In addition, in other experiments, there was no binding of Xatr or Xatrip to beads containing GST fusions of the 1-348, 333-646, or 623-984 segments from XtopBP1 (data not shown).
Applicants also tested to see if the association of XtopBP1 with Xatr depends upon Xatrip. For this experiment, Applicants removed endogenous Xatrip from egg extracts by immunodepletion with anti-Xatrip antibodies. As described previously, this procedure leaves behind approximately 30% of the endogenous Xatr, the fraction that is not in a complex with Xatrip (Kumagai et al., 2004). Next, Applicants added GST-XtopBP1 (972-1279) to the Xatrip-depleted extracts and to mock-depleted extracts that had been prepared in parallel.

Xchk1 = test: Ectopic phosphorylation of 35S-Xchk1 in Xenopus egg extracts without checkpoint-inducing DNA; assay type: biochemical; settings: 35S-Xchk1, tautomycin, no checkpoint-inducing DNA template
Method: Because the GST-XtopBP1 (972-1279) fragment could activate Xatr in vitro without the inclusion of DNA, Applicants reasoned that ectopic addition of this fragment to Xenopus egg extracts might also be able to trigger the Xatr-dependent phosphorylation of Xchk1 even in the absence of a checkpoint-inducing DNA template.
Extracts from Xenopus eggs were prepared as described (Kumagai and Dunphy, 2000). A DNA replication checkpoint response was induced by addition of 50 μg/ml aphidicolin into extracts containing demembranated sperm nuclei (3000 per μl) (Kumagai and Dunphy, 2000). To monitor DNA replication, extracts containing 1000 sperm nuclei/μl were incubated with [α-^32P]dATP (Yoo et al., 2004).

Row | Molecule | activation of Xatr kinase activity toward PHAS-I (Xatr-Xatrip [1]) | ATR activation compared with the 972-1279 fragment (Xatr-Xatrip [1]) | other results
1 | human TopBP1 (residues 978-1192): GST fusion fragment of human TopBP1 (residues 978-1192) from between BRCT domains VI and VII | activated Xatr-Xatrip very effectively |  | 
2 | residues 978-1192: His6-Human TopBP1 fragment containing residues 978-1192 |  | almost as effective as the 972-1279 fragment | 
3 | B1 |  |  | phosphorylation of Mcm2 on S108 (human Mcm2 on S108; immunoblotting): significantly elevated phosphorylation; phosphorylation of S108 (human Mcm2 on S108; indirect immunofluorescence): increase in the phosphorylation of S108
4 | B2 | incapable of activating Xatr |  | binding of Xatr and Xatrip to glutathione beads (Xatr-Xatrip [2]): no binding; phosphorylation of Xchk1 in egg extracts (Xchk1): did not induce any phosphorylation
5 | B3 | no Xatr-activating capacity |  | 
6 | B4 |  | slight, but not very significant reduction | 
7 | B5 |  | almost as effective as the 972-1279 fragment | 
8 | B6 |  | significant reduction | 
